Source: PMC5095144, “Purification and characterization of an extracellular β‐glucosidase from Sporothrix schenckii” (FEBS Open Bio, 2016)

How the values were obtained:
[1] = target: extracellular β-glucosidase from Sporothrix schenckii (Sporothrix schenckii); test: SEC; Sephacryl S200-HR column (1 x 119 cm), 50 mM phosphate buffer pH 7, 4 °C, calibrated with standard proteins; native mass compared with the subunit mass from 7% SDS/PAGE
[2] = target: extracellular β-glucosidase from Sporothrix schenckii (Sporothrix schenckii); test: zymogram after SDS/PAGE (semidenaturing) and native PAGE; 7% gels run at 4 °C, sample incubated 30 min at 37 °C in sample buffer; activity shown with 4-MUG; CFCF after 3 days on cellulose
[3] = system: T1, extracellular β-glucosidase; test: p-nitrophenol release at […] nm, Michaelis-Menten nonlinear regression; type: biochemical, Sporothrix schenckii; conditions: 100 mM sodium citrate pH 5, 45 °C; substrate 0–17.5 mM (below the fitted Km)
T1 construct: gene beta-D-glucoside glucohydrolase; native, secreted, purified from culture filtrate of cellulose-grown mycelial form

[4] = system: T1, extracellular β-glucosidase; test: fluorometric 4-MU release, Michaelis-Menten nonlinear regression; type: biochemical, Sporothrix schenckii; conditions: 100 mM sodium citrate pH 5, 45 °C; substrate 0–15 μM

extracellular β-glucosidase from Sporothrix schenckii (enzyme)
stoichiometry N [1]: 2
stoichiometry N [2]: 2

O=[N+]([O-])c1ccc(O[C@@H]2O[C@H](CO)[C@@H](O)[C@H](O)[C@H]2O)cc1 [p-nitrophenyl β-D-glucopyranoside]
Km [3]: 44.1 ± 6.11 mM

Cc1cc(=O)oc2cc(O[C@@H]3O[C@H](CO)[C@@H](O)[C@H](O)[C@H]3O)ccc12 [4-methylumbelliferyl β-D-glucopyranoside]
Km [4]: 0.012 ± 0.001 mM
